Measurements as given in the DeepSol protein solubility set.

Test: soluble on expression in E. coli; label from the status in PepcDB or PDB records

Sequence	soluble on expression in E. coli
MGSDKIHHHHHHMSIYNSIGKQYSQTRVPDIRIVNAIINLLNLPKGSVIADIGAGTGGYSVALANQGLFVYAVEPSIVMRQQAVVHPQVEWFTGYAENLALPDKSVDGVISILAIHHFSHLEKSFQEMQRIIRDGTIVLLTFDIRLAQRIWLYDYFPFLWEDALRFLPLDEQINLLQENTKRRVEAIPFLLPHDLSDLFAAAAWRRPELYLKAEVRAGISSFALANQDLVEKGLELLTADLNNGEWIRKYGEIHHLQEIDIGYRFIYTTLDK	not soluble
MGSDKIHHHHHHMSIYNSIGLHYSKTRVPDIRIVNKIIDLLNLPKNSIIADIGAGTGGYSLALANKGFLVNAIEPSLVMQKQAVEHPQVKWFTGYAENLPLLDNSVDTVVSILAIHHFSHLPKAFQEMHRIIKNGAIILLTFDIRLAQKIWLYDYFPFLWEDALQFLPLNEQINLIQINTKRRVEAIPLLLPYDLSDLFAAAGWRRPELYLQAEVRAGISSLALANQDLVDQGVKLLTADLSSEKWRKQYGDIHNLTEIDIGYRFIHTTLNN	not soluble
MGSDKIHHHHHHMSLFDHKITELKQLIHKKEIKISDLVDESYKRIQAVDDKVQAFLALDEERARAYAKELDEAVDGRSEHGLLFGMPIGVKDNIVTKGLRTTCSSKILENFDPIYDATVVQRLQDAEAVTIGKLNMDEFAMGSSTENSAYKLTKNPWNLDTVPGGSSGGSAAAVAAGEVPFSLGSDTGGSIRQPASFCGVVGLKPTYGRVSRYGLVAFASSLDQIGPITRTVEDNAFLLQAISGVDKMDSTSANVDVPDFLSSLTGDIKGLKIAVPKEYLGEGVGKEARESVLAALKVLEGLGATWEEVSLPHSKYALATYYLLSSSEASANLARFDGIRYGYRTDNADNLIDLYKQTRAEGFGNEVKRRIMLGTFALSSGYYDAYYKKAQKVRTLIKKDFEDVFEKYDVIVGPTTPTPAFKIGENTKDPLTMYANDILTIPVNLAGVPGISVPCGLADGLPLGLQIIGKHFDESTVYRVAHAFEQATDHHKAKPEL	not soluble
MGSDKIHHHHHHMSLLKVQNLTKEFPLGFFGKERLKAVDDVSFEIERSRIVSLIGESGSGKTTVGKLILKLIRPSSGQILLNGRDITQIKGRELREYYRKVQGVFQDPFSSFNPIYKIDRVLDMVFEEFFPDTPASERRTKMEEVIASVGMNPREILGKYPHQLSGGQLQRILIARTLLLNVELLIADEIISMLDASTRVDILNLLGDLRERGMSVIFITHDLSLGYYISDETFIMYRGNIVEMGDTEKVFHNPIHPYTKMLLESVPEIDRKWDLSKRFIPELVSSSNAPCKYYDRCPIRDERCLVQKPAMVEVEENHKVLCLKAGD	not soluble
MGSDKIHHHHHHMSLLVRAAALTNYCEVARAGGLDPLRMMFDAGISPSVLREPDLMIQVDRFGRLLQTSATLSGNESFGLSMAESRLLSNLGPVGMLIRDQATLRDALGMLMRYQSILNGAKSLAVDECGGRVIIREVLIAGSAHQPTRQRVELALGVMVRLIRQLIKPDWQPQRVCFEHPAPRDLSTHQRFFGPNVAFNCDFNGIVCAKSDLDARNPWADPAMARYAQRLIDESAAARQTTMLEDVRRTILLLLPGGRCSVEQVAENLGVVCRTVQRRLAEQGQSFSSVVNDIRVELAMRHVVESDRPFTEVATLLGFSAPSGFSRWYQTQFGCSPKESRAASAAVGERVTETPSPARSSPTVRPLSRG	not soluble
MGSDKIHHHHHHMSLPIIKVHWLDHSRAFRLLWLLDHLNLEYEIVPYKRDANFRAPPELKKIHPLGRSPLLEVQDRETGKKKILAESGFIFQYVLQHFDHSHVLMSEDADIADQINYYLFYVEGSLQPPLMIEFILSKVKDSGMPFPISYLARKVADKISQAYSSGEVKNQFDFVEGEISKNNGYLVDGKLSGADILMSFPLQMAFERKFAAPEDYPAISKWLKTITSEESYAASKEKARALGSNF	not soluble
MGSDKIHHHHHHMSLPYKRWHYFNLIKNSLQKGCLKQQQTLTATTLKRNTIMTVIKQEDFIQSICDAFQFISYYHPKDYIDALYKAWQKEENPAAKDAMTQILVNSRMCAENNRPICQDTGIATVFLKVGMDVQWDADMSVEEMVNEGVRRAYTWEGNTLRASVLADPAGKRQNTKDNTPAVIHMSIVPGDKVEVTCAAKGGGSENKSKLAMLNPSDNIVDWVLKTIPTMGAGWCPPGILGIGIGGTPEKAVLMAKESLMSHIDIQELQEKAASGAELSTTEALRLELFEKVNALGIGAQGLGGLTTVLDVKILDYPTHAASKPIAMIPNCAATRHVEFELDGSGPVELTPPRVEDWPDLTYSPDNGKRVDVDKLTKEEVASWKTGDVLLLNGKILTGRDAAHKRLVDMLDKGEELPVDFTNRLIYYVGPVDPVGDEIVGPAGPTTATRMDKFTRQMLEQTDLLGMIGKSERGAATCEAIADNKAVYLMAVGGAAYLVAKAIKSSKVLAFPELGMEAIYEFEVKDMPVTVAVDSKGESIHATAPPQWQAKIGIIPVKS	not soluble
MGSDKIHHHHHHMSLSHNRHKKLIEMVQTDGEVRIRDLMVHFNVSEETARRDIKQLEQDGLVVRVHGGAVATQQPKLLTISSRAISELAEKNVIAEIALGLLKPGQNLFFGGGSTVLALARRISMLPEMRIVTNMVDTAIAASEGRRHRVVLLGGDFNGDYRVVTGFAALRTLREQQIDIAFIGVNAVHPTLGVFDHEQGGQELAATLAEQARKITVLADHSKFGRSARYRTLPHSAIATIITDQQPEPHVLTAIEGAGADVLYPPQNPS	not soluble
MGSDKIHHHHHHMSLSRINIGSFRNITSASLQPCDGLNLIYGQNGSGKTSILEAIYFLGMGRSFRSHLSQRVINNDDDKLTLFAHLIDADRDCKIGLRRHRSGEIEVKIDGEKVKRLSTLAETLPIQVITPESFSLLFEGPKARRQFIDWGAFHSDPHFYQAWVNTRKVLKQRNQLLRNQSSYNQIQFWDKELVRYAEQVTDIRNQYVDSLNVLLKGIIGVFLPRIDIKVSFTRGWDSKTDFAQLLENQYSRDLAAGNTGSGPHKADLRLRVGNLPAQDALSRGQLKLLVCALRIAQGKLLKQQLDKNSIYLVDDLPSELDAQHRQLLLQLLTETGAQIFVTAIDPQAIVDSLSSPPNRMFHVEQGLVTVIE	not soluble
MGSDKIHHHHHHMSMDIVERINKLKEEKNAVILAHNYQPKEIQKIADFLGDSLELCIKAKETDADIIVFCGVDFMGESAKILNPEKKVLMPEIEGTQCPMAHQLPPEIIKKYRELYPEAPLVVYVNTTAETKALADITCTSANADRVVNSLDADTVLFGPDNNLAYYVQKRTDKKVIAIPEGGGCYVHKKFTIDDLKRVKSKYPNAKVLIHPECSPELQDNADYIASTSGILRIVLESDDEEFIIGTEVGMINRLEIELEKLGKKKTLIPLRKDAICHEMKRITLEKIEKCLLEERYEIKLEKEIIEKAQKAIERMLRI	not soluble
MGSDKIHHHHHHMSMNISGLGNAYSGVNTNSKQYKALKEKGWLEGVIQNEAMMSPEGKMIYEIFGGRDTIVNNLMKQFDSDGDLLNANGVAGMDVTGKGTSWQKLTNVSEEYRQKMFDNVKKEFIQENGVSNGDTTKRSDIFKDYQLSVNKDKRLSGTWTLEQYEGQYRSAMYAAVKAANPNWKPGQKFDTSILDNVTRESAEATLVKNGNRLVRNSIDVSV	not soluble
MGSDKIHHHHHHMSNEQLADLTQPQRDRLAFVELRVRFIGEIRRQDLVTRFGIQSAAASRDLALYKELAPGNIDYDSKGKSYVLGPDFRPVFDFPPERVLSWLTQGFGDGEPMRLKAWVASESPSRLTHPDLDVLASVTRAIHQECPLGIEYHSISSGRTEREIVPFALIDNGLRWHVRAFDRKSQEFRDFVITRIKRPVLIRDAEVQSHERSDQDIQWTRIVELEMVPHPDQPRPEITEMDYGMVRGSLRMKLRAATAGYILRQWSVDCSPDHSLRGYEFRLWLKDHLALYGVKNAVLAPGYRSPDQNKGEQ	not soluble
MGSDKIHHHHHHMSNFGRQIEAFRAVMLTGGMTTAAETLRITQPAISRLIRDLEDDLKIALFHRRGNQITPTVEATAFLAEVERSYLGMDQLRTFAVDLRNSLTGSLRIAALPAMALGFMPYCLAKFSGTRPKLSITLDGIPSHLVLERVAGGQFELGFAAVPADRPMLNTTPIKARAVVVMPEGHPLAKNETVSADQLRNERIVMLDRGNYLRHTIERALGTRAGSPGAIETPLSAIACSFVARGLGVTIIDAFTAINFLGRGIEARLLVPELDFGFAMVTAQQRPMSQLARQFAQEIHLLAEEYQSPIFG	not soluble
MGSDKIHHHHHHMSNHAIPARLQLRHITKRYPGCLANDAVDLTIQPGEIHALLGENGAGKSTLMKIIYGVTQPDAGSIIWQGQAQIMRNPAQARSLGIGMVFQHFSLFETLSVAQNIALAMGAAAGTPRQLEPRIREVSQRYGMAVEPQRLVHSLSIGERQKVEIIRCLMQDIHLLILDEPTSVLTPQEAEELFVTLRHLASEGCSILFISHKLGEVRALCHSATVLRNGKVSGHCIPAECSDLELARLMVGDAEGLTAHYEKVSGGAAFLQVDRLSWHNPDPFGCSLKDLSLEVCSGEIVGIAGVAGNGQDELLALLSGEQTLPHAQAATLRFANTPVGHLRPDARRKRGLAFVPAERLGHGAVPELSLADNALLTAFQQGLVSNGLIQRGKARALADEIIRRFAVKTPDAQAPARSLSGGNLQKFILGREILQNPKLLIAAHPTWGVDVGAAAAIHRALIALRDAGAAILVISEDLDELFQISDRLAALSGGQLSDLIPTEQTSTVQIGGWMAGQFDHSQTQAHTPG	not soluble
MGSDKIHHHHHHMSNKLPALHLFGIFEAAARHENFKQAAAELFITPSAVSHQIKALEAFLGFELFQRKSRGVALNAAGKVYLHYVQQGINKLEQGTKIVSNKFSSPSLKISTFTTMASNVIIPTLSDFQQQHPTIDIRIETGMNLTDLRYDDCDLAIRMGKGDWPGVVVKKLLNLTAHAVCSAEFAKKHKLTSPEQISQVPLIDLANMNNIWRTWAGAMQLPEMQYQHKLTFGNYDASLQAAEQGLGLALAIMPIEHALIERNLLVLPFEKSTNFDQSLYAVYREEDQNRNDIHCFLDWLTQSPNLKPI	not soluble
MGSDKIHHHHHHMSNKLTYIVASGDTYTSIVNKINQSTPLTVSQLADANPSIQANQLQIGQALDIPLSTDGLIPDDNPALLTPAAEFMGYWYPYSASCPKNATLSVALYGWGPQKVIEWGKQADVQSHLNGEKYLSFGGGSESGKFTEQALNEITTAITQGQIKGYDGIAYDVEVADANLGAQFANSFEAAKACGFKVLVTISHSAPYDVADKDQLMKSFFINPHIDILSPQLYSKGDESQNDYALTSGSSITWRDYASTKAAIVPSIVHASYYEAAKIYFKNQGVELSGYLQWK	not soluble
MGSDKIHHHHHHMSNSDPIERFFRSGLKLPHLRILVSLADLGQVTRVAAAFHVTQPAISKQIAEIEDALGVAVVNRVGNALELTGIGQVIVSCGREVLRHIELAKRDVSALASGTAGHVRVGAVVTIPEPLIANSVQLFIRRAPSASLSFAESTLDRLIRMMDDGELDIALGRNRIAGANSAQSTLKQEILHREPFVFVAGAHHPLGDPDRPTTWADLRGCRWITPMHGSPAYATLVEALAVHDLTPDPGAVESSSLALNVALIRSGDFVSILPMSVARPQVMRGNMRVLPLPPLQPLGEIVAYWRLGSTTPAAQLFNACLKEVSSDLLGERIEAG	not soluble
MGSDKIHHHHHHMSNVDRAEIAKFEALAHRWWDRESEFKPLHEINPLRVNWIDERVSLAGKKVLDVGCGGGILSEAMALRGATVTGIDMGEAPLAVAQLHQLESGVQVEYRQITAEALAEEMPEQFDVVTCLEMLEHVPDPSSVIRACYRMVKPGGQVFFSTINRNPKAYLLAIVGAEYILKMLPRGTHDFKKFIRPSELGAWSRDAGLQVKDIIGLTYNPLTKHYKLNSDVDVNYMIQTLREE	not soluble
MGSDKIHHHHHHMSNVKTAEFKRPQLSLPHSADKLLLHSCCAPCSGEVMEAITASGIDYTIFFYNPNIHPQREYLIRKEENIRFAEQHNVPFIDADYDSDNWFERAKGMEWEPERGIRCTMCFDMRFERTALYAAENGFSVISSSLGISRWKNMQQINECGQNAAQKYPGVTYWDYNWRKGGGSARMIEISKREHFYQQEYCGCIYSLRDSNKHRKSQGRDIIRIGKLYYGDEAE	not soluble
